Assay results: the supplement of paper PMC10567573

B1: PKD2L1 (parent)
chain: TLARCAKDILGFAVMFFIVFFAYA
B2: TRIM43 (parent)
chain: NNSWIRKNSTMVNSEDIFLLLCLK

Variants of: B1
Experiment: protein stability index of a GFP-peptide fusion (GPS, HEK-293T) (PSI 1-6); higher = more stable
Settings: c terminus: a fixed tail appended
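Further: lentivirally expressed fusions sorted by FACS into six bins by GFP to DsRed ratio, PSI derived from sequencing read proportions per bin multiplied by bin number.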

Variant	protein stability index
TLARCAKDILGFAVMFFIVIFAYA [F20I]	2.7
TLARCAKDILGFAVMFFIVPFAYA [F20P]	3.48
TLARCAKDILGFAVMFFIVDFAYA [F20D]	1.83
TLARCAKDILGFAVMFFIVCFAYA [F20C]	2.57

Variants of: B2
Experiment: as above
Settings: c terminus: a fixed tail appended

Variant	protein stability index
NNSWICKNSTMVNSEDIFLLLCLK [R6C]	3.31
NNSWIAKNSTMVNSEDIFLLLCLK [R6A]	2.27
GNSWIRKNSTMVNSEDIFLLLCLK [N1G]	2.73
ENSWIRKNSTMVNSEDIFLLLCLK [N1E]	4.19
INSWIRKNSTMVNSEDIFLLLCLK [N1I]	2.27
YNSWIRKNSTMVNSEDIFLLLCLK [N1Y]	2.79
FNSWIRKNSTMVNSEDIFLLLCLK [N1F]	3.27
MNSWIRKNSTMVNSEDIFLLLCLK [N1M]	2.72
RNSWIRKNSTMVNSEDIFLLLCLK [N1R]	2.71
DNSWIRKNSTMVNSEDIFLLLCLK [N1D]	2.27
TNSWIRKNSTMVNSEDIFLLLCLK [N1T]	2.58
ANSWIRKNSTMVNSEDIFLLLCLK [N1A]	2.72
VNSWIRKNSTMVNSEDIFLLLCLK [N1V]	3.04
SNSWIRKNSTMVNSEDIFLLLCLK [N1S]	2.39
QNSWIRKNSTMVNSEDIFLLLCLK [N1Q]	2.11
HNSWIRKNSTMVNSEDIFLLLCLK [N1H]	3.28
KNSWIRKNSTMVNSEDIFLLLCLK [N1K]	3.25
LNSWIRKNSTMVNSEDIFLLLCLK [N1L]	2.47
WNSWIRKNSTMVNSEDIFLLLCLK [N1W]	2.36
NMSWIRKNSTMVNSEDIFLLLCLK [N2M]	3.25
NLSWIRKNSTMVNSEDIFLLLCLK [N2L]	2.46
NGSWIRKNSTMVNSEDIFLLLCLK [N2G]	3.56
NESWIRKNSTMVNSEDIFLLLCLK [N2E]	3.2

Variant	protein stability index
NSSWIRKNSTMVNSEDIFLLLCLK [N2S]	2.48
NFSWIRKNSTMVNSEDIFLLLCLK [N2F]	3.5
NWSWIRKNSTMVNSEDIFLLLCLK [N2W]	2.65
NISWIRKNSTMVNSEDIFLLLCLK [N2I]	2.32
NCSWIRKNSTMVNSEDIFLLLCLK [N2C]	2.89
NYSWIRKNSTMVNSEDIFLLLCLK [N2Y]	3.58
NQSWIRKNSTMVNSEDIFLLLCLK [N2Q]	2.59
NVSWIRKNSTMVNSEDIFLLLCLK [N2V]	2.46
NDSWIRKNSTMVNSEDIFLLLCLK [N2D]	1.88
NHSWIRKNSTMVNSEDIFLLLCLK [N2H]	2.3
NRSWIRKNSTMVNSEDIFLLLCLK [N2R]	2.93
NPSWIRKNSTMVNSEDIFLLLCLK [N2P]	2.24
NTSWIRKNSTMVNSEDIFLLLCLK [N2T]	2.14
NNSWCRKNSTMVNSEDIFLLLCLK [I5C]	2.8
NNSWQRKNSTMVNSEDIFLLLCLK [I5Q]	3.02
NNSWTRKNSTMVNSEDIFLLLCLK [I5T]	3.2
NNSWMRKNSTMVNSEDIFLLLCLK [I5M]	2.4
NNSWLRKNSTMVNSEDIFLLLCLK [I5L]	2.8
NNSWPRKNSTMVNSEDIFLLLCLK [I5P]	3.31
NNSWDRKNSTMVNSEDIFLLLCLK [I5D]	2.61
NNSWNRKNSTMVNSEDIFLLLCLK [I5N]	3.07
NNSWRRKNSTMVNSEDIFLLLCLK [I5R]	2.13
NNSWWRKNSTMVNSEDIFLLLCLK [I5W]	4.27

Variant	protein stability index
NNSWHRKNSTMVNSEDIFLLLCLK [I5H]	3.14
NNSWVRKNSTMVNSEDIFLLLCLK [I5V]	2.27
NNSWSRKNSTMVNSEDIFLLLCLK [I5S]	3.64
NNSWYRKNSTMVNSEDIFLLLCLK [I5Y]	2.56
NNSWKRKNSTMVNSEDIFLLLCLK [I5K]	3.55
NNSWARKNSTMVNSEDIFLLLCLK [I5A]	2.47
NNSWERKNSTMVNSEDIFLLLCLK [I5E]	3.23
NNSWFRKNSTMVNSEDIFLLLCLK [I5F]	2.91
NNAWIRKNSTMVNSEDIFLLLCLK [S3A]	3.59
NNLWIRKNSTMVNSEDIFLLLCLK [S3L]	2.9
NNMWIRKNSTMVNSEDIFLLLCLK [S3M]	3.38
NNHWIRKNSTMVNSEDIFLLLCLK [S3H]	2.64
NNYWIRKNSTMVNSEDIFLLLCLK [S3Y]	3.59
NNFWIRKNSTMVNSEDIFLLLCLK [S3F]	1.95
NNKWIRKNSTMVNSEDIFLLLCLK [S3K]	2.5
NNQWIRKNSTMVNSEDIFLLLCLK [S3Q]	3.18
NNTWIRKNSTMVNSEDIFLLLCLK [S3T]	4.59
NNCWIRKNSTMVNSEDIFLLLCLK [S3C]	3.41
NNRWIRKNSTMVNSEDIFLLLCLK [S3R]	2.59
NNNWIRKNSTMVNSEDIFLLLCLK [S3N]	2.48
NNPWIRKNSTMVNSEDIFLLLCLK [S3P]	2.4
NNIWIRKNSTMVNSEDIFLLLCLK [S3I]	2.78
NNVWIRKNSTMVNSEDIFLLLCLK [S3V]	2.53

Variant	protein stability index
NNWWIRKNSTMVNSEDIFLLLCLK [S3W]	3.13
NNEWIRKNSTMVNSEDIFLLLCLK [S3E]	3.25
NNDWIRKNSTMVNSEDIFLLLCLK [S3D]	2.66
NNSQIRKNSTMVNSEDIFLLLCLK [W4Q]	2.62
NNSAIRKNSTMVNSEDIFLLLCLK [W4A]	1.55
NNSFIRKNSTMVNSEDIFLLLCLK [W4F]	2.91
NNSNIRKNSTMVNSEDIFLLLCLK [W4N]	2.4
NNSMIRKNSTMVNSEDIFLLLCLK [W4M]	2.59
NNSPIRKNSTMVNSEDIFLLLCLK [W4P]	2.73
NNSKIRKNSTMVNSEDIFLLLCLK [W4K]	2.72
NNSDIRKNSTMVNSEDIFLLLCLK [W4D]	2.64
NNSTIRKNSTMVNSEDIFLLLCLK [W4T]	2.88
NNSRIRKNSTMVNSEDIFLLLCLK [W4R]	3.35
NNSHIRKNSTMVNSEDIFLLLCLK [W4H]	3
NNSYIRKNSTMVNSEDIFLLLCLK [W4Y]	3.95
NNSGIRKNSTMVNSEDIFLLLCLK [W4G]	2.06
NNSCIRKNSTMVNSEDIFLLLCLK [W4C]	3.11
NNSLIRKNSTMVNSEDIFLLLCLK [W4L]	1.6
NNSIIRKNSTMVNSEDIFLLLCLK [W4I]	1.99
NNSVIRKNSTMVNSEDIFLLLCLK [W4V]	3
NNSSIRKNSTMVNSEDIFLLLCLK [W4S]	3.31
